The text below walks through data of patent publication US20190241655A1 (Merck Sharp & Dohme, published 2019).

B1: DX435 (antibody, V domains shown)
VH: EVQLQQSGPEMVKPGASVKISCKASGYAFTDYNIHWVKKSHGKSPEWIGHIYPYNKDTVFNQNKTKATLTVDKSTTTAYMDLRSLTSEDSAVYYCARGAVGYFDYWGQGTTLTVSS
VL: DIQMTQSPASLSASVGETVTITCRASGNIHNFLAWYQQKQGKSPQLLVYNAKTLADGVPSRFSGSGSGTQYSLKINSLQPEDFGSYYCQHFWSYPFTFGAGTKLELK
notes: Mouse hybridoma anti-ILT3 antibody tested as hybridoma supernatant
B2: DX440 (antibody, V domains shown)
VH: EVQLQQSGPELVKPGASVKISCKASGYTFSDYNMHWVKQSHGKSLKWIGHIFPYIGDTVYNQKFTSKATLTVDNSSSTGYMEIRSLTSEDSAVYYCARGAVGYFDYWGQGTTLTVSS
VL: DIQMTQSPASLSASVGETVTITCRASGNIHNYLAWYQQKQGKSPQFLVYNAKTLADGVPSRFSGSGSGTQYSLKINSLQPEDFGTYYCQHFWSFPFTFGAGTKLELK
notes: as for B1
B3: DX439 (antibody, V domains shown)
VH: EVQLQQPGPELVKPGASVKISCKASGYTFTDYNMHWVRQRHGKSLEWIGHIYPYNGNTVYNQRFKNKATLNVDNFSSTAYMELRSLTSEDSAVYYCARGAVGYFDHWGQGTTLTVSS
VL: DIQMTQSPASLSASVGETVTITCRASGNIHNFLAWYQQKQGRSPQLLVYNAKTLADGVPSRFSGSGSGTQYSLKINSLQPEDFGNYYCQHFWSYPFTFGAGTNLELK
notes: as for B1
B4: DX446 (antibody, V domains shown)
VH: QIQLVQSGPELKKPGETVKISCKASGYTFTNYRMTWVKQAPGKGLKWMGWINTNTGDPTYAEELKGRFAFSSETSASTAYLQINNLKNEDTATYFCAREGFFNYAMDYWGQGTSVTVSS
VL: DILLTQSPAILSVSPGKRVSFSCRASQSIGTSIHWYQQRTNGSPRLLIKYASESISGIPSRFSGSGSGTDFTLSINSVESEDIADYYCQQSNSWPPTFGAGTKLELK
notes: Mouse hybridoma anti-ILT3 antibody tested as hybridoma supernatant; also called Anti-ILT3 (DX446)

T1 sequence (chain, as listed by the source limits assumed): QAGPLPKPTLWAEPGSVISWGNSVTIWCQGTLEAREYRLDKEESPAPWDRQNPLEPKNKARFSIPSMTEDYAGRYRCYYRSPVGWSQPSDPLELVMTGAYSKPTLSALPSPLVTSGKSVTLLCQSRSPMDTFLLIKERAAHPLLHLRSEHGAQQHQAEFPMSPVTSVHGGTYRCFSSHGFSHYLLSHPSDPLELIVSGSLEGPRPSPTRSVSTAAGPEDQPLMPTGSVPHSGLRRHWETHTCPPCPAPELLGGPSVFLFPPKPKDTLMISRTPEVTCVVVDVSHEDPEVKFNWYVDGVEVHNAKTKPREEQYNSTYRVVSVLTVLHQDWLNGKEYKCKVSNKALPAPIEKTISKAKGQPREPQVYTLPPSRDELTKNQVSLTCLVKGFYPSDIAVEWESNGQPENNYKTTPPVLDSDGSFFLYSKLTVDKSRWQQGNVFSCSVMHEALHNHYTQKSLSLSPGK

The experiment concerns the target T1, ILT3Fc (human).
T1 construct: also called ILT3Fc-fusion protein; human ILT3Fc
As to the kind of experiment: Octet (BLI), ILT3Fc on anti-human Fc biosensors, antibody supernatant 167 nM.
As to B1, the binding result is reported as “binds”. The same measure for B2: “binds”; for B3: “binds”.

With B4, the binding result is on record as “binds”.
